For this assay, the target named is M.EcoKI MTase (M2S1 methyltransferase core of the EcoKI Type I RM system) (E. coli K12) (UniProt P08957). The assay can be described thus: ITC. (In general: Isothermal titration calorimetry measures the heat released or taken up as one component is titrated into another.)
Sequence of UniProt P08957 (P08957 whole entry, chain 1 of 2): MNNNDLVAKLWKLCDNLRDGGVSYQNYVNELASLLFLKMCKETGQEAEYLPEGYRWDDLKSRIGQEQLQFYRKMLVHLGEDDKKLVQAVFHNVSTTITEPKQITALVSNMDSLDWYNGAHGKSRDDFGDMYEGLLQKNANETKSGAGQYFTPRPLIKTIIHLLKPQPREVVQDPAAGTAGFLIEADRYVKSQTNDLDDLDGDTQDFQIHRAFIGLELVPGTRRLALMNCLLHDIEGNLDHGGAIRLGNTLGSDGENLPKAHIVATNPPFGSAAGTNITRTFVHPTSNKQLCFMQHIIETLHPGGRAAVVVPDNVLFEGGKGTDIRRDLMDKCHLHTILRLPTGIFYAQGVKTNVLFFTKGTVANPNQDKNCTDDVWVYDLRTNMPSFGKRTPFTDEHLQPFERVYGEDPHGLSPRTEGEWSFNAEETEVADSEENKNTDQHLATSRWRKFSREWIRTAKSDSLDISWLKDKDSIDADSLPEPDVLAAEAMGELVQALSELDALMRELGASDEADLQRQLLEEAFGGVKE
Sequence of UniProt P08957 (P05719 whole entry, chain 2 of 2, further chain): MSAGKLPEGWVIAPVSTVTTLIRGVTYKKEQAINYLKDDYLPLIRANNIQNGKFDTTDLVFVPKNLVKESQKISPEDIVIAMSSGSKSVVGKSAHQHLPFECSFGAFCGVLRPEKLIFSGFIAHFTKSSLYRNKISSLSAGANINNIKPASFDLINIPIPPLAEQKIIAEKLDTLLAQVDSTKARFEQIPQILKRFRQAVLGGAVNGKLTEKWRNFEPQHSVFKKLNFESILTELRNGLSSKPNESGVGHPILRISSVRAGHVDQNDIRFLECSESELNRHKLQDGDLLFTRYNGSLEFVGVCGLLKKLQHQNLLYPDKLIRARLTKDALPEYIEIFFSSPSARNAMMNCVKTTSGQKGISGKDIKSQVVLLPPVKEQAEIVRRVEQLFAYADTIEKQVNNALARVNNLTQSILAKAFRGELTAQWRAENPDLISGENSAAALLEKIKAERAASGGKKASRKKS

Take Ocr/POcr (natural protein): the dH is -64 kJ/mol and the stoichiometry N (Ocr dimers per M.EcoKI) came out at 0.89.

The values are drawn from PMC3439906.
